Test results as given in US20030199671A1 (published 2003).
Starred links: 1 amine or outer side, 2 acyl side, 3 side chain; linkers in the order of their positions; H or OH if unused. Primed or numbered codes have the meaning given here. code X(3) = -NH-(CH2CH2O)2-CH2CH2- (from -X-NH2 = -NH-(CH2CH2O)2-CH2CH2-NH2), C(COCCOCC[*:2])N[*:1]; code Z = not defined here; Su = not defined here

Tests used:
[1] = biological target: T1, human IgG (unfractionated, polyclonal); assay: filterplate; 25 mg human IgG applied per ml resin
T1 construct: also called hIgG; polyclonal human IgG
Procedure: After incubation of the samples, with shaking, at room temperature for one hour, the supernatant liquid from each well, containing unbound IgG, was collected by centrifugation into the cognate well of a collection plate. The assay plate was washed three times with PBST (200 μl/wash) and bound IgG was eluted from the media samples by incubation for 30-60 minutes at room temperature in 100 μl Elution Buffer (100 mM CAPS, pH 11.5). Eluates were collected by centrifugation for analysis. Protein concentrations were determined from A₂₈₀ measurements and plotted as a function of mg human IgG bound per ml resin vs. mg human IgG applied per ml resin.
These were subsequently tested in batch filterplate format for relative static capacity, human IgG subtype and species specificity as previously described. In addition, total dynamic capacities were determined for comparison. […] The static capacity (mg IgG bound per ml resin) was measured at the 2.5 mg/ml target concentration (25 mg human IgG applied per ml resin).

human IgG1 [2] = biological target: T2, human IgG1 (human, UniProt P01857-1 1-330 = IgG part); assay: batch binding, immobilised ligand
T2 construct: Calbiochem; human plasma IgG1 in anisotropy studies, myeloma-derived (cat. 400120) in batch/column studies; also called hIgG1
T2 sequence (P01857 other isoform, or with tags, fused parts or gaps): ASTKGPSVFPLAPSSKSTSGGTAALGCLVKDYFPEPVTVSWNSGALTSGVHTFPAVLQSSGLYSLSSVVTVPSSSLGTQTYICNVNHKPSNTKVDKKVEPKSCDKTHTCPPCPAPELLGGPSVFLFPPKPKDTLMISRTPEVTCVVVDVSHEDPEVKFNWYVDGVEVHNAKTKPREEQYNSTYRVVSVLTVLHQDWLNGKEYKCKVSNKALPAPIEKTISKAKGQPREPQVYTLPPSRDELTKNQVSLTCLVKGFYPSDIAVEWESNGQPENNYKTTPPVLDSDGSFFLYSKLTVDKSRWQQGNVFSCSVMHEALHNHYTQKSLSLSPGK
Procedure: (§1) IgG targets were diluted into 10 mM phosphate buffer containing 150 mM NaCl and 0.01% Tween 20, pH 7.2 (PBST) or 50 mM Tris buffer containing, 150 mM NaCl and 0.01% Tween-20, pH 7.5 (TBST). Batch (static) binding and elution studies were conducted in a 96-well assay filterplate (Millipore MultiScreen-HV, with 0.45 μm Durapore membrane, product no. MAHVN4510). The target was allowed to incubate with the resin for 1-1.5 hours with shaking at room temperature. Unbound target was collected by centrifugation of samples from the assay plate directly into a low-UV absorbing 96-well collection plate (Costar, product no. 3635 or Greiner, product no. 655801). The unbound target was then quantitated by reading the absorbance at 280 nm (normalized to 1 cm pathlength, 1.4 mg/ml A280 extinction coefficient) of the collection plate on a microplate spectrophotometer (Molecular Devices Corp., SPECTRAmax PLUS) against a buffer blank.
(§2) The percentage bound target was determined by subtracting the mass determined as unbound from the corresponding condition's control values (control non-filtered added directly to the collection plate and/or the negative control). The assay plate was washed (3×) with 200 μl of binding buffer by vacuum filtration followed by addition of 100 μl of various elution conditions (e.g.: 0.1 M sodium bicarbonate buffer, pH 8.5 and/or 0.1 M sodium citrate buffer, pH 4.0). After a 30-60 minute incubation with shaking at room temperature, the eluted target was collected by centrifugation of the assay plate into another collection plate and quantitated in a similar manner. Percent elution of total load was then determined to characterize elution recovery efficiency under various conditions.

human IgG4 [3] = biological target: T3, human IgG4 (human, UniProt P01861-1 1-327 = IgG part); assay: batch binding, immobilised ligand
T3 construct: Calbiochem; plasma IgG4 in anisotropy studies, myeloma-derived (cat. 400126) in batch/column studies; also called hIgG4
T3 sequence (P01861 other isoform, or with tags, fused parts or gaps): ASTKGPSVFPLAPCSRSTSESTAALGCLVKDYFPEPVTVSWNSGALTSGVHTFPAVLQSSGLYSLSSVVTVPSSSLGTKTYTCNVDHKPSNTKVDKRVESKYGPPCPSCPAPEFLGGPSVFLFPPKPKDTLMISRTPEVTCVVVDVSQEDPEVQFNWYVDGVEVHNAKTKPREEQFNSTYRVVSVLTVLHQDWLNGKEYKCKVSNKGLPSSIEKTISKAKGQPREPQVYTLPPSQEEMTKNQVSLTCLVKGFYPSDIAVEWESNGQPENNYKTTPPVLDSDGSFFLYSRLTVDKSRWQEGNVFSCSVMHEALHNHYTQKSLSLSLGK
Procedure: as §1, §2

human IgG2 [4] = biological target: T4, human IgG2 (human, UniProt P01859-1 1-326 = IgG part); assay: batch binding, immobilised ligand
T4 construct: Calbiochem; plasma IgG2 in anisotropy studies, myeloma-derived (cat. 400122) in batch/column studies; also called hIgG2
T4 sequence (P01859 other isoform, or with tags, fused parts or gaps): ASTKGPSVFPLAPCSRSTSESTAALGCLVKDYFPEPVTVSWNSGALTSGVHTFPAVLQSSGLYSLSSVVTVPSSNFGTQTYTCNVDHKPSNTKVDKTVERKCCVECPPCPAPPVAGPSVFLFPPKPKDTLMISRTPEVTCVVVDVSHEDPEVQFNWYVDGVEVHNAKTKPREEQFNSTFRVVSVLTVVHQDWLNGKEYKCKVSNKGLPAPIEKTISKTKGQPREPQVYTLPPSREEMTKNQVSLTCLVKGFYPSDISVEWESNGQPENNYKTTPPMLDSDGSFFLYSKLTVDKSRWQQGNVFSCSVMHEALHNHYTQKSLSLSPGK
Procedure: as §1, §2

human IgG3 [5] = biological target: T5, human IgG3 (human, UniProt P01860-1 1-377); assay: batch binding, immobilised ligand
T5 construct: Calbiochem; plasma IgG3 in anisotropy studies, myeloma-derived (cat. 400124) in batch/column studies; also called hIgG3
T5 sequence (P01860 other isoform, or with tags, fused parts or gaps): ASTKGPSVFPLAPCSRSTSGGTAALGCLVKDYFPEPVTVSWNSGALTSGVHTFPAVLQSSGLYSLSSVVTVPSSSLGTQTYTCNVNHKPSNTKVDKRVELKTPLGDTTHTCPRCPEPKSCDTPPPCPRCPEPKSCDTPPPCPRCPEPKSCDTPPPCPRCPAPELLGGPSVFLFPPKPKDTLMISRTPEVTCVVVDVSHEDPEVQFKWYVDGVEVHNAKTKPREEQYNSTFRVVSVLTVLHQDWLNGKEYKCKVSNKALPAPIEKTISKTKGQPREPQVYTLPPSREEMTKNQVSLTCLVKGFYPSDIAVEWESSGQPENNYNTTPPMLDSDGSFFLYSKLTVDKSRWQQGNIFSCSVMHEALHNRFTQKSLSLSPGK
Procedure: as §1, §2

human IgG3 [6] = biological target: T5, human IgG3; assay: anisotropy; pH 4.0 + salt
human IgG3 [7] = biological target: T5, human IgG3; assay: anisotropy; pH 4.0 - salt
human IgG1 [8] = biological target: T2, human IgG1; assay: mini-column chromatography, immobilised ligand
Procedure: (§3) Thus, 250 μg of target (hIgG1, hIgG2, hIgG3, hIgG4, goat IgG and bovine IgG) at 0.250 mg/ml in PBST, pH 7.2 or TBST, pH 7.3 was loaded onto a 350 μl column (3×50 mm) run at 0.200 ml/min. flowrate (170 cm/hr). Flowthrough, elution and cleaning fractions were collected and assayed for total protein recovery by size-exclusion HPLC.

human IgG4 [9] = biological target: T3, human IgG4; assay: mini-column chromatography, immobilised ligand
Procedure: as §3

human IgG2 [10] = biological target: T4, human IgG2; assay: mini-column chromatography, immobilised ligand
Procedure: as §3

human IgG1 [11] = biological target: T2, human IgG1; assay: anisotropy; pH 4.0 - salt
human IgG4 [12] = biological target: T3, human IgG4; assay: anisotropy; pH 4.0 - salt
human IgG2 [13] = biological target: T4, human IgG2; assay: anisotropy; pH 4.0 - salt
human IgG3 [14] = biological target: T5, human IgG3; assay: anisotropy; pH 7.5 + salt
human IgG3 [15] = biological target: T5, human IgG3; assay: anisotropy; pH 9.5 + salt
human IgG1 [16] = biological target: T2, human IgG1; assay: anisotropy; pH 7.5 - salt
human IgG4 [17] = biological target: T3, human IgG4; assay: anisotropy; pH 7.5 - salt

| Bound (% of Total Load) (human IgG1 [2]) | Bound (% of Total Load) (human IgG4 [3]) | Bound (% of Total Load) (human IgG2 [4]) | Bound (% of Total Load) (human IgG3 [5]) | Kd (human IgG3 [6]) | Kd (human IgG3 [7]) | Binder | also measured |
| --- | --- | --- | --- | --- | --- | --- | --- |
| 87% | 59% | 82% | 0% | – | – | Ac-GDWGECTVTSYGELIWCGGLEPGPEGGGK-NH2 (not fully specified (bridges); printed as Ac-GDWGECTVTSYGELIWCGGLEPGPEGGGK-NH2; cysteine pairing not given here, Immobilised on Sepharose) [DX1070] | – |
| 7% | 1% | 2% | 0% | – | – | Ac-GDNPMCWRASWWEDAYCINHEPGPEGGGK-NH2 (not fully specified (bridges); printed as Ac-GDNPMCWRASWWEDAYCINHEPGPEGGGK-NH2; cysteine pairing not given here, Derivative of DX596 (two internal lysines replaced by arginine and alanine); immobilised) [DX1071] | – |
| 31% | 15% | 21% | 0% | – | – | Ac-GDNPMCWRAHWWEDAYCINHEPGPEGGGK-NH2 (not fully specified (bridges); printed as Ac-GDNPMCWRAHWWEDAYCINHEPGPEGGGK-NH2; cysteine pairing not given here, Derivative of DX596 (Lys-Lys to Arg-Ala and adjacent Ser to His); immobilised) [DX1072] | – |
| 93% | 71% | 90% | 0% | – | – | Ac-GDSWNCAFHHNEMVWCDDGGTPGPEGGGK-NH2 (not fully specified (bridges); printed as Ac-GDSWNCAFHHNEMVWCDDGGTPGPEGGGK-NH2; cysteine pairing not given here, Immobilised on Sepharose) [DX597] | – |

Continued, binder first:

| Binder | Bound (% of Total Load) (human IgG1 [2]) | Bound (% of Total Load) (human IgG4 [3]) | Bound (% of Total Load) (human IgG2 [4]) | Bound (% of Total Load) (human IgG3 [5]) | Kd (human IgG3 [6]) | Kd (human IgG3 [7]) | also measured |
| --- | --- | --- | --- | --- | --- | --- | --- |
| Ac-GDDHMCVYTTWGELIWCDNH-{code X(3)-Su-code X(3)-NH2} (not fully specified (bridges); printed as Ac-GDDHMCVYTTWGELIWCDNH-X-Su-X-NH2; cysteine pairing not given here; reading uncertain, DX249 derivative; immobilised) [DX909] | – | – | – | – | – | – | Static Cap. [1]: 11 mg/mL |
| Ac-AGSYWCKIWDVCPQSPGPEGGGK-NH2 (not fully specified (bridges); printed as Ac-AGSYWCKIWDVCPQSPGPEGGGK-NH2; cysteine pairing not given here, immobilised in batch assays) [DX392] | – | – | – | – | 600 nM | 320 nM | – |
| Ac-GDDHMCVYTTWGELIWCDNH-{code X(3)-NH2} (not fully specified (bridges); printed as Ac-GDDHMCVYTTWGELIWCDNH-X-NH2; cysteine pairing not given here, DX249 derivative; immobilised) [DX907] | – | – | – | – | – | – | Static Cap. [1]: 10 mg/mL |
| Ac-AGPHNCDDHYWYCKWFPGPEGGGK-NH2 (not fully specified (bridges); printed as Ac-AGPHNCDDHYWYCKWFPGPEGGGK-NH2; cysteine pairing not given here, immobilised in batch assays) [DX389] | – | – | – | – | 1800 nM | 2500 nM | – |
| Ac-GDRRACSRDWSGALVWCAGHEPGPEGGGK-NH2 (not fully specified (bridges); printed as Ac-GDRRACSRDWSGALVWCAGHEPGPEGGGK-NH2; cysteine pairing not given here, immobilised on Sepharose in batch/column assays) [DX253] | 86% | 60% | 81% | 0% | – | – | binding efficiency (human IgG1 [8]): > 90%; binding efficiency (human IgG4 [9]): > 90%; binding efficiency (human IgG2 [10]): > 90%; bdg % (of Total Load) (human IgG1 [2]): 56%; bdg % (of Total Load) (human IgG4 [3]): 40%; bdg % (of Total Load) (human IgG2 [4]): 63%; bdg % (of Total Load) (human IgG3 [5]): 15% |
| Ac-AGAATCSTSYWYYQWFCTDSPGPEGGGK-NH2 (not fully specified (bridges); printed as Ac-AGAATCSTSYWYYQWFCTDSPGPEGGGK-NH2; cysteine pairing not given here, immobilised in batch assays) [DX398] | – | – | – | – | 40 nM | 20 nM | Kd (human IgG1 [11]): 2400 nM; Kd (human IgG4 [12]): 1600 nM; Kd (human IgG2 [13]): 1800 nM; Kd (human IgG3 [14]): 300 nM; Kd (human IgG3 [15]): 300 nM; Kd (human IgG1 [16]): 4600 nM; Kd (human IgG4 [17]): 3500 nM |
| Ac-GDDHMCVYTTWGELIWCDNH-{code X(3)-code Z-code X(3)-NH2} (not fully specified (bridges); printed as Ac-GDDHMCVYTTWGELIWCDNH-X-Z-X-NH2; cysteine pairing not given here; reading uncertain, DX249 derivative; immobilised) [DX911] | – | – | – | – | – | – | Static Cap. [1]: 9 mg/mL |
| Ac-AGYWYCWFPDRPECPLYPGPEGGGK-NH2 (not fully specified (bridges); printed as Ac-AGYWYCWFPDRPECPLYPGPEGGGK-NH2; cysteine pairing not given here) [DX413] | – | – | – | – | 1100 nM | 840 nM | – |
